Patent US9096835B2, “DNA polymerase” (Medical Research Council, priority 2003, dated 2015)

What was measured:
[1] = test system: 215 bp fragment from the cytochrome B gene in the mitochondrial genome; assay: Ancient DNA PCR, cave hyena samples; format: biochemical, cave hyena (Crocuta spelaea); settings: on two separate occasions
Excerpt: FIG. 12. Several samples of cave hyena (Crocuta spelaea) were extracted and analysed. The seven samples were from Teufelslucke cave (Austria, 40 000 years old), Aufhausener Höhle (Germany, no date determined (2 samples)); Irpfelhöhle (Germany, no date determined); Kiskevelyi ([…] 48 500 years old); Miskolc III (Hungary, 44 000 years old); Mala ladnica (Slovakia, no date determined). The target was a 215 bp fragment from the cytochrome B gene in the mitochondrial genome. The amplification was only successful in the presence of sspDNA.
Several samples of cave hyena (Crocuta spelaea) were extracted and analysed. […] These samples were chosen to test the efficacy of the expanded substrate spectrum polymerases.
Therefore, M1 was blended with a commercial preparation of Taq (SuperTaq (HT biotechnology Ltd)) in a ratio of 1 unit to 10 and compared to Taq in the absence of M1. It was hoped that if M1 could bypass the blocking lesions, then the wild type Taq would amplify the resulting translesion synthesis product.

[2] = test system: template containing 5-Nitroindole; assay: Primer extension opposite 5-nitroindole; format: biochemical; settings: 50° C., cell lysate, identical conditions as 4D11 and 5D4; data not shown
Method: 50 pmol of ^32P-labelled primer and 100 pmol of template in a volume of 44 μl were annealed in 1× Taq buffer. 4D11 or 5D4 polymerase as cell lysate (6 μl) was added and reactions were incubated at 50° C. for 15 minutes followed by addition of one dNTP (1 μl in total volume of 50 μl, final dNTP concentration 40 μM). 8 μl samples were taken at various time points and added to 8 μl stop solution (7M urea, 100 mM EDTA containing xylene cyanol F). At the end of the time course the remaining 3 dNTPs were added (final concentration each dNTP 40 μM) and reactions incubated at 50° C. for a further 30 minutes. Reaction samples were electrophoretically separated using 20% polyacrylamide gels at 25 W for 4 hours. The resultant gels were dried and scanned using a phosphorimager (Molecular Dynamics). Data was processed using the program ImageQuant (Molecular Dynamics).

[3] = Incorporation and extension of 5-nitroindole-5′-triphosphate; format: biochemical; settings: 50° C., identical conditions as 4D11 and 5D4; data not shown
Method: 50 pmol of ^32P-labelled primer and 100 pmol of template in a volume of 44 μl were annealed in 1× Taq buffer. 4D11 or 5D4 polymerase as cell lysate (6 μl) was added and reactions were incubated at 50° C. for 15 minutes followed by addition of d5NITP (1 μl in total volume of 50 µL final dNTP concentration 40 μM). 8 μl samples were taken at various time points and added to 8 μl stop solution (7M urea, 100 mM EDTA containing xylene cyanol F). At the end of the time course the 4 native dNTPs were added (final concentration each dNTP 40 μM) and reactions incubated at 50° C. for a further 30 minutes.

Row | Molecule | amplification of previously un-amplifiable cave hyena DNA [1] | extension opposite 5-nitroindole [2] | incorporation and extension of d5NITP [3]
1 | SuperTaq: commercial preparation of Taq (HT biotechnology Ltd) | did not |  | 
2 | Tth: Thermus thermophilus (Tth) wild-type polymerase (protein, UniProt P52028 1-834, looked up) DNA polymerase I, thermostable: MEAMLPLFEPKGRVLLVDGHHLAYRTFFALKGLTTSRGEPVQAVYGFAKSLLKALKEDGYKAVFVVFDAKAPSFRHEAYEAYKAGRAPTPEDFPRQLALIKELVDLLGFTRLEVPGYEADDVLATLAKKAEKEGYEVRILTADRDLYQLVSDRVAVLHPEGHLITPEWLWEKYGLRPEQWVDFRALVGDPSDNLPGVKGIGEKTALKLLKEWGSLENLLKNLDRVKPENVREKIKAHLEDLRLSLELSRVRTDLPLEVDLAQGREPDREGLRAFLERLEFGSLLHEFGLLEAPAPLEEAPWPPPEGAFVGFVLSRPEPMWAELKALAACRDGRVHRAADPLAGLKDLKEVRGLLAKDLAVLASREGLDLVPGDDPMLLAYLLDPSNTTPEGVARRYGGEWTEDAAHRALLSERLHRNLLKRLEGEEKLLWLYHEVEKPLSRVLAHMEATGVRLDVAYLQALSLELAEEIRRLEEEVFRLAGHPFNLNSRDQLERVLFDELRLPALGKTQKTGKRSTSAAVLEALREAHPIVEKILQHRELTKLKNTYVDPLPSLVHPRTGRLHTRFNQTATATGRLSSSDPNLQNIPVRTPLGQRIRRAFVAEAGWALVALDYSQIELRVLAHLSGDENLIRVFQEGKDIHTQTASWMFGVPPEAVDPLMRRAAKTVNFGVLYGMSAHRLSQELAIPYEEAVAFIERYFQSFPKVRAWIEKTLEEGRKRGYVETLFGRRRYVPDLNARVKSVREAAERMAFNMPVQGTAADLMKLAMVKLFPRLREMGARMLLQVHDELLLEAPQARAEEVAALAKEAMEKAYPLAVPLEVEVGMGEDWLSAKG |  | almost undetectable extension reactions | almost undetectable extension reactions
